From patent US20120316071A1 (published 2012)

What was measured:
[1] = target: T1, rHuman ErbB2/Fc Chimera, CF (R&D Systems Cat#1129-ER) (human, UniProt P04626 23-652); test: MSD multispot ECL, antigen spotted on plate, Fab 176.3 nM; blank spot 346
T1 construct: Bought from R&D Systems; also called human epidermal growth factor 2 receptor (ErbB2); not shown: Fc of the bought chimera

[2] = target: T2, rHuman Notch-1/Fc Chimera, CF (R&D Systems Cat#3647-TK) (human, UniProt P46531 19-526); test: as above
T2 construct: Bought from R&D Systems; not shown: Fc of the bought chimera

[3] = target: T3, rHuman CD44/Fc Chimera, CF (R&D Systems Cat#3660-CD) (human, UniProt P16070 21-220); test: as above
T3 construct: Bought from R&D Systems; not shown: Fc of the bought chimera

[4] = target: T4, rHuman IGF-1 sR, (IGF-1 sR), CF (R&D Systems Cat#391-GR) (human, UniProt P08069 31-932); test: as above
T4 construct: Bought from R&D Systems and called a soluble receptor; also called insulin-like growth factor-1 soluble receptor

[5] = target: T5, rHuman Erythropoietin R/Fc Chimera, CF (R&D Systems Cat#963-ER) (human, UniProt P19235 25-250); test: as above
T5 construct: Bought from R&D Systems; also called EPO R/Fc; Epo R/Fc chimera; not shown: Fc of the bought chimera
T5 sequence (looked up): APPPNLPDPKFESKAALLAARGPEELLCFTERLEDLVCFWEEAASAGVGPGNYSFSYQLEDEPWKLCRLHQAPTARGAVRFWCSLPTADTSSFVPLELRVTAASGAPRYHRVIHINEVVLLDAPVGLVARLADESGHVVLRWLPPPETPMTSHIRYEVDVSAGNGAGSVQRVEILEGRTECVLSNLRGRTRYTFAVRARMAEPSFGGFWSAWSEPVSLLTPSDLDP

[6] = target: T6, rHuman Erythropoietin R/Fc Chimera, CF (R&D Systems Cat#963-ER) (human, UniProt P19235 25-250); test: Multispot ECL (MSD) titration; antigen spotted on plate; Fab 392.5 nM; blank spot 338
T6 construct: Bought Fc chimera; also called EPO R/Fc; EPO R; Fc part of the bought chimera not given
T6 sequence (looked up): T5 sequence (looked up)

[7] = target: T7, Recombinant Human DLL4 (R&D Systems Cat#1506-D4/CF) (human, UniProt Q9NR61 27-524); test: as above
T7 construct: Bought recombinant protein; also called delta-like protein 4; rHuman DLL4

[8] = target: T8, rHuman ErbB2/Fc Chimera, CF (R&D Systems Cat#1129-ER) (human, UniProt P04626 23-652); test: as above
T8 construct: Bought Fc chimera; also called human epidermal growth factor 2 receptor; Fc part of the bought chimera not given

[9] = target: T9, rHuman HGF R/c-MET/Fc Chimera, CF (R&D Systems Cat#358-MT/CF) (human, UniProt P08581 25-932); test: as above
T9 construct: Bought Fc chimera; also called HGF R/Fc; hepatocyte growth factor receptor; Fc part of the bought chimera not given

[10] = target: T10, rHuman Notch-1/Fc Chimera, CF (R&D Systems Cat#3647-TK) (human, UniProt P46531 19-526); test: as above
T10 construct: Bought Fc chimera; Fc part of the bought chimera not given

[11] = target: T11, rHuman CD44/Fc Chimera, CF (R&D Systems Cat#3660-CD) (human, UniProt P16070 21-220); test: as above
T11 construct: Bought Fc chimera; Fc part of the bought chimera not given

[12] = target: T12, rHuman IGF-1 sR (IGF-1 sR), CF (R&D Systems Cat#391-GR) (human, UniProt P08069 31-932); test: as above
T12 construct: Bought soluble receptor; also called insulin-like growth factor-1 soluble receptor

[13] = target: T13, rHuman P-Cadherin/Fc Chimera, CF (R&D Systems Cat#861-PC) (human, UniProt P22223 108-654); test: as above
T13 construct: Bought Fc chimera; Fc part of the bought chimera not given

[14] = target: T14, Recombinant Human DLL4 (R&D Systems Cat#1506-D4/CF) (human, UniProt Q9NR61 27-524); test: ECL multispot (MSD) assay, spotted antigen; Fab 20.00 (head prints uM)
T14 construct: Bought recombinant protein; also called delta-like protein 4

[15] = target: T15, rHuman ErbB2/Fc Chimera, CF (R&D Systems Cat#1129-ER) (human, UniProt P04626 23-652); test: as above
T15 construct: Bought recombinant protein; Fc part of the bought chimera not given

[16] = target: T16, rHuman EGF R/Fc Chimera, CF (R&D Systems Cat#344-ER) (human, UniProt P00533 25-645); test: as above
T16 construct: Bought recombinant protein; Fc part of the bought chimera not given

[17] = target: T17, rHuman Notch-1/Fc Chimera, CF (R&D Systems Cat#3647-TK) (human, UniProt P46531 19-526); test: as above
T17 construct: Bought recombinant protein; Fc part of the bought chimera not given

[18] = target: T18, rHuman CD44/Fc Chimera, CF (R&D Systems Cat#3660-CD) (human, UniProt P16070 21-220); test: as above
T18 construct: Bought recombinant protein; Fc part of the bought chimera not given

[19] = target: T19, rHuman P-Cadherin/Fc Chimera, CF (R&D Systems Cat#861-PC) (human, UniProt P22223 108-654); test: as above
T19 construct: Bought recombinant protein; Fc part of the bought chimera not given

T9 sequence (P08581 25-932, change not shown): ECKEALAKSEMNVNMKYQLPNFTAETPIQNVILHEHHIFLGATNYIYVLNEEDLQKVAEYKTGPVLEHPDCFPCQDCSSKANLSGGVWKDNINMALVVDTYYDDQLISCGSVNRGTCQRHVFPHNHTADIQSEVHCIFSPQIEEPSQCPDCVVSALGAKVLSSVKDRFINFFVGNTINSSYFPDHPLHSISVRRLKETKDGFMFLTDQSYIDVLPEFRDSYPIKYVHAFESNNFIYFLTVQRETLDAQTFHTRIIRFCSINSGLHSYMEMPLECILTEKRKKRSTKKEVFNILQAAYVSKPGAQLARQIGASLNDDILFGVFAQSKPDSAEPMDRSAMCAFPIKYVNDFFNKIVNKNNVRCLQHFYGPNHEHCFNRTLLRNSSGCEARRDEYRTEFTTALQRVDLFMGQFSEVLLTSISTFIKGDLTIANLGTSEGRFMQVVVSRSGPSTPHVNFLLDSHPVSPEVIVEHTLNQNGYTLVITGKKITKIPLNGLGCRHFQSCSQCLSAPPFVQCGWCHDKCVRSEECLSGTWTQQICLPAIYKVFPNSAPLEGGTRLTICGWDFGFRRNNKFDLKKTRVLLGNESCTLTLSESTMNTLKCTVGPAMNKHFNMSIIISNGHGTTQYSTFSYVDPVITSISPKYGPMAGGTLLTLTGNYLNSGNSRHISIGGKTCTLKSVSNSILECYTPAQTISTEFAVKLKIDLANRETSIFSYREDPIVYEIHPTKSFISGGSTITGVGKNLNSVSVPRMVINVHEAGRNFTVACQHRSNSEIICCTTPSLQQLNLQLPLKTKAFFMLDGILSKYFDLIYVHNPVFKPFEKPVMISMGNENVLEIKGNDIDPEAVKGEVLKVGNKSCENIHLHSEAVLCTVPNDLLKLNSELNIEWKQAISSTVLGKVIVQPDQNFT

B1: Fab VH1-46_IGHD3-10*01_IGHJ4*01 & B3_IGKJ1*01 (Fab, V domains shown)
VH: QVQLVQSGAEVKKPGASVKVSCKASGYTFTSYYMHWVRQAPGQGLEWMGIINPSGGSTSYAQKFQGRVTMTRDTSTSTVYMELSSLRSEDTAVYYCAREYYYGSGSYYNDYFDYWGQGTLVTVSS
VL: not shown
notes: Tested as a Fab made in E. coli; VH was cloned into Plasmid A (CH1 constant region, His6 and Flag tags); The kappa VL was cloned into Plasmid C (kappa CL)
ECL signal [1]: 448
ECL signal [2]: 664
ECL signal [3]: 376
ECL signal [4]: 393
ECL signal [5]: 3520

B2: Fab VH1-46_IGHD3-10*01_IGHJ4*01 & O1_IGKJ1*01 (Fab, V domains shown)
VH: B1 VH
VL: DIVMTQTPLSLPVTPGEPASISCRSSQSLLDSDDGNTYLDWYLQKPGQSPQLLIYTLSYRASGVPDRFSGSGSGTDFTLKISRVEAEDVGVYYCMQRIEFPSWTFGQGTKVEIKR
notes: Germline library Fab expressed in E. coli; VH was cloned into Plasmid A (CH1 constant region, His6 and Flag tags); The kappa VL was cloned into Plasmid C (kappa CL)
ECL signal [6]: 5860
ECL signal [7]: 735
ECL signal [8]: 539
ECL signal [9]: 581
ECL signal [10]: 749
ECL signal [11]: 498
ECL signal [12]: 466
ECL signal [13]: 459

B3: Fab VH5-51_IGHD5-18*01>3_IGHJ4*01 G100K/G104T & V3-4_IGLJ1*01 (Fab, V domains shown)
VH: EVQLVQSGAEVKKPGESLKISCKGSGYSFTSYWIGWVRQMPGKGLEWMGIIYPGDSDTRYSPSFQGQVTISADKSISTAYLQWSSLKASDTAMYYCARRKYSYTYDYFDYWGQGTLVTVSS
VL: QTVVTQEPSFSVSPGGTVTLTCGLSSGSVSTSYYPSWYQQTPGQAPRTLIYSTNTRSSGVPDRFSGSILGNKAALTITGAQADDESDYYCVLYMGSGISYVFGTGTKVTVL
notes: Tested as a Fab; The constant parts are the same as for the parent Fab (CH1 with His6/Flag tags, lambda CL); also called KT double mutant; H:KT
ECL signal/noise ratio [14]: 157
ECL signal/noise ratio [15]: 1.2
ECL signal/noise ratio [16]: 1.1
ECL signal/noise ratio [17]: 1.2
ECL signal/noise ratio [18]: 1.1
ECL signal/noise ratio [19]: 1.1
